Residue numbers refer to the chain shown, from its start. Names and notes keep the numbering of the source.
T1: recombinant human GDF-15 (human, UniProt Q99988 195-308)
T1 construct: mature; also called hGDF-15; Growth Differentiation Factor-15
T1 sequence (looked up): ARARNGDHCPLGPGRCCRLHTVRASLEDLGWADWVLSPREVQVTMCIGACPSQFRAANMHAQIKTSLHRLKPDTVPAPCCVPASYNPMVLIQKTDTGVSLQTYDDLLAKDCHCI

T2: cynomolgus GDF-15 (cynomolgus monkey, UniProt G7PWZ3 193-308, limits assumed)
T2 construct: also called NHP GDF-15
T2 sequence (looked up): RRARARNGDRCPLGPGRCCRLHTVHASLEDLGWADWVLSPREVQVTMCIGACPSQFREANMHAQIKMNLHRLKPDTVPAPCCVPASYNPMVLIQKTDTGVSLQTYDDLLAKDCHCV

T3: mouse GDF-15 (mouse, UniProt Q9Z0J7 189-303)
T3 construct: also called murine GDF-15
T3 sequence (looked up): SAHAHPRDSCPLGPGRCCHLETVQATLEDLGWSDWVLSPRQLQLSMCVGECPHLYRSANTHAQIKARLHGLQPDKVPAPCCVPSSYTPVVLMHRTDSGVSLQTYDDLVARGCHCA

T4: rat GDF-15 (rat, UniProt Q9Z0J6 189-303)
T4 sequence (looked up): T3 sequence (looked up) with A4L, Q63L, K75R, R110Q

B1: CTL-002 (antibody, human IgG4 S228P, kappa)
heavy: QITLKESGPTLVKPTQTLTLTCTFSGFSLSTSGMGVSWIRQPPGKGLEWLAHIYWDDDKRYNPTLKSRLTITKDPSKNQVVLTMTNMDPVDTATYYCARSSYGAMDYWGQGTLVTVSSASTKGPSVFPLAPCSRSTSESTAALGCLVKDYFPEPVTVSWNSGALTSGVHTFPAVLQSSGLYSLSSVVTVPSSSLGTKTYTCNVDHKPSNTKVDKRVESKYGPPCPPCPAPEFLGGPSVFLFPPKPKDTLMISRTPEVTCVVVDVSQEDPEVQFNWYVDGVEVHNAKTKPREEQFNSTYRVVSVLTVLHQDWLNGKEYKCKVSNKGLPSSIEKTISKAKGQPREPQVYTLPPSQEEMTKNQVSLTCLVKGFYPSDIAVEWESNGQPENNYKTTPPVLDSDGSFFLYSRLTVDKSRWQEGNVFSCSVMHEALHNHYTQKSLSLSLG
light: DIVLTQSPSFLSASVGDRVTITCKASQNVGTNVAWFQQKPGKSPKALIYSASYRYSGVPDRFTGSGSGTEFTLTISSLQPEDFAAYFCQQYNNFPYTFGGGTKLEIKRTVAAPSVFIFPPSDEQLKSGTASVVCLLNNFYPREAKVQWKVDNALQSGNSQESVTEQDSKDSTYSLSSTLTLSKADYEKHKVYACEVTHQGLSSPVTKSFNRGEC
notes: Humanized, hinge-stabilized IgG4 (IgG4 S228P) derived from mouse antibody B1-23; also called CTL-001 IgG4*; CTL-001 IgG4
B2: CTL-001 (antibody, human IgG1, kappa)
heavy: not shown
light: B1 light
notes: Humanized IgG1 with a kappa light chain; also called H1L5; B1-23-H1L5

Experiments:
recombinant human GDF-15 [1] = molecular target: T1, recombinant human GDF-15; experiment: SPR (Biacore T3000): CTL-002 on the flow cell (per paragraph 142 an anti-human IgG Fc antibody is immobilized on the CM5 chip), human GDF-15 injected at 247, 370, 556, 833 and 1250 pM, global fit; one representative measurement of three
Protocol: (§1) All experiments were performed in 10 mM HEPES buffer, pH 7.4, 150 mM NaCl, 3.4 mM EDTA and 0.05% Tween. anti-human IgG Fc specific antibody (Jackson, Order #109-005-008, Lot #111148) was covalently immobilized by EDC/NHS chemistry on Biacore CM5 Chips (GE Healthcare, Order #61144275, Lot #10236645). For kinetic characterization of the antigen-antibody interaction pulses of increasing GDF-15 concentrations (e.g. 156.3 pM, 312 pM, 625 pM, 1,250 pM) were injected at a flow rate of 30 μl/min. After each measurement cycle (8 min of association followed by 30 min of dissociation) the antibody-antigen complex was resolved by regeneration of the surface with 10 mM glycine-HCl at pH 2.0. […] For global fit analysis only, these antigen concentrations were taken into account, which allowed the analysis following the Langmuir 1:1 binding model or 1:1 binding with drifting baseline.

recombinant human GDF-15 [2] = molecular target: T1, recombinant human GDF-15; experiment: cell-based or functional assay
cynomolgus GDF-15 [3] = molecular target: T2, cynomolgus GDF-15; experiment: KD from PK-PD model fitted to in vivo NHP data (not a direct binding assay); in vivo KD fitted by the NHP PK-PD model, not an in vitro binding assay
mouse GDF-15 = molecular target: T3, mouse GDF-15; experiment: SPR, Biacore T3000; CTL-002 on immobilized anti-human IgG Fc antibody, GDF-15 injected
Protocol: (§2) In addition, the affinity to cynomolgus rat and mouse GDF-15 was measured (see Table 2).
as §1

rat GDF-15 = molecular target: T4, rat GDF-15; experiment: as above
Protocol: as §2, §1

recombinant human GDF-15 [4] = molecular target: T1, recombinant human GDF-15; experiment: as above
Protocol: as §2, §1

cynomolgus GDF-15 [5] = molecular target: T2, cynomolgus GDF-15; experiment: as above
Protocol: as §2, §1

[6] = molecular target: human complement protein C1q (human, UniProt P02745 23-245; P02746 28-253; P02747 29-245); experiment: ELISA, antibody incubated on coated human GDF-15, then 10 µg/ml human C1q, detection with HRP-conjugated anti-C1q antibody
Protocol: Interaction of C1q protein and therapeutic antibody was determined in an ELISA-based approach with 10 μg/ml human C1q protein using a HRP-conjugated anti-C1q antibody for detection. Here, CTL-001 and the different isotype variants were incubated to prior coated human GDF-15 protein before C1q binding was obtained. Experiment was performed in triplicated and mean of absorption (A450 nm) was plotted against the antibody concentration.

Sequence of human complement protein C1q (P02745 23-245 limits assumed, chain 1 of 3): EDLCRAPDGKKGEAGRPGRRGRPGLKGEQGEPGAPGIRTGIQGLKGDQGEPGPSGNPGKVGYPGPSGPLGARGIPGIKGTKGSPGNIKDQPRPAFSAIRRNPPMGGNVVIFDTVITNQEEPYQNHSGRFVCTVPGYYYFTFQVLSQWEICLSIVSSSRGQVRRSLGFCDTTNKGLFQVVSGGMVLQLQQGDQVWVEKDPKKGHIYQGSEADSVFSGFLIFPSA
Sequence of human complement protein C1q (P02746 28-253 limits assumed, chain 2 of 3): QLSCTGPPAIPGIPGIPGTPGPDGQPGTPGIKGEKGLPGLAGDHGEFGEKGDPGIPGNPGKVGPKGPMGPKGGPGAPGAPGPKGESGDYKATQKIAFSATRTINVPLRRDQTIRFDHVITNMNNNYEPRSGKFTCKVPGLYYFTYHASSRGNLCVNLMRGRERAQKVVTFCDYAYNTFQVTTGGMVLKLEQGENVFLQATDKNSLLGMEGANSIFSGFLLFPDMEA
Sequence of human complement protein C1q (P02747 29-245 limits assumed, chain 3 of 3): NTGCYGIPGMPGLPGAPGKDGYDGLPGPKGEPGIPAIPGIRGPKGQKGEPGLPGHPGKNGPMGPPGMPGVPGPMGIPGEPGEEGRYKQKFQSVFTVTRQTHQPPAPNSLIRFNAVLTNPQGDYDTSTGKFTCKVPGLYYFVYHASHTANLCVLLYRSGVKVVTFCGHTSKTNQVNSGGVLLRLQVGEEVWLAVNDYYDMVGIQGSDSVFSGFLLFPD

Row | Binder | Kd (recombinant human GDF-15 [1]) | EC50, rescue of CD8+ T-cell adhesion (flow-adhesion assay) (recombinant human GDF-15 [2]) | EC50, reversal of GDF-15 mediated inhibition of T cell adhesion (in vitro flow-adhesion assay, 50 ng/ml GDF-15) (recombinant human GDF-15 [2]) | EC50 of CTL-002 in the flow-adhesion assay with T cells (recombinant human GDF-15 [2]) | Kd (cynomolgus GDF-15 [3]) | Kd (mouse GDF-15) | Kd (rat GDF-15) | Kd (recombinant human GDF-15 [4]) | Kd (cynomolgus GDF-15 [5]) | binding result [6]
1 | B1 | 0.0338 nM | ~700 ng/mL | 690 to 725 ng/mL | 707 ng/mL | 0.019 nM | 9.76 nM | 0.449 nM | 0.0383 nM | 0.108 nM | no binding (tested: about 25 µg/ml (leftmost visible marker))
2 | B2 | – | – | – | – | – | – | – | – | – | no binding (tested: about 25 µg/ml (leftmost visible marker))
